In patent publication US20030199040A1 (IMMUNEX, published 2003):

Biological target: monkey IL-1Rrp1 endogenous to COS7 cells (monkey)
Experiment: cell-based or functional assay

B1: hAcPL expressed on COS7 cells (receptor)
chain: ERIKGFNISGCSTKKLLWTYSTRSEEEFVLFCDLPEPQKSHFCHRNRLSPKQVPEHLPFMGSNDLSDVQWYQQPSNGDPLEDIRKSYPHIIQDKCTLHFLTPGVNNSGSYICRPKMIKSPYDVACCVKMILEVKPQTNASCEYSASHKQDLLLGSTGSISCPSLSCQSDAQSPAVTWYKNGKLLSVERSNRIVVDEVYDYHQGTYVCDYTQSDTVSSWTVRAVVQVRTIVGDTKLKPDILDPVEDTLEVELGKPLTISCKARFGFERVFNPVIKWYIKDSDLEWEVSVPEAKSIKSTLKDEIIERNIILEKVTQRDLRRKFVCFVQNSIGNTTQSVQLKEKRGVVLLYILLGTIGTLVAVLAASALLYRHWIEIVLLYRTYQSKDQTLGDKKDFDAFVSYAKWSSFPSEATSSLSEEHLALSLFPDVLENKYGYSLCLLERDVAPGGVYAEDIVSIIKRSRRGIFILSPNYVNGPSIFELQAAVNLALDDQTLKLILIKFCYFQEPESLPHLVKKALRVLPTVTWRGLKSVPPNSRFWAKMRYHMPVKNSQGFTWNQLRITSRIFQWKGLSRTETTGRSSQPKEW
increase in NFκB activity (NFκB-Luc reporter) in COS7 cells transfected with hAcPL alone and stimulated with hIL-18: 8 fold
